Experimental data published in US5585345.

molecular target: human glycoprotein hormone alpha subunit (human) (UniProt P01215); assay: co-expression with alpha subunit in CHO cells, pulse-chase, immunoprecipitation; recovery of diglycosylated form, estimated

Question: For LHthr^15 (1-114), which Dimer Recovery (%) is on record?
Answer: The Dimer Recovery (%) was greater than 95%.

molecular target: human glycoprotein hormone alpha subunit (human) (UniProt P01215); assay: co-expression with alpha subunit in CHO cells, 35S-cysteine pulse-chase, immunoprecipitation, SDS-PAGE

Question: How did the Dimer Recovery (%) turn out when CG(1-114) was run?
Answer: The Dimer Recovery (%) was 90%.

Question: How did the Dimer Recovery (%) turn out when LH(1-114) was run?
Answer: The Dimer Recovery (%) was 80%.

Question: With LHarg^8 as the substance, how does the Dimer Recovery (%) read?
Answer: The Dimer Recovery (%) was 32%.

Question: LHarg^8 (1-114) was tested. Which Dimer Recovery (%) did it give?
Answer: The Dimer Recovery (%) was 91%.

Question: LHarg^8 arg^10 (1-114) was tested. Which Dimer Recovery (%) did it give?
Answer: The Dimer Recovery (%) was 95%.

Question: LHasn^58 (1-114) was tested. Which Dimer Recovery (%) did it give?
Answer: The Dimer Recovery (%) was greater than 95%.

Question: LHthr^15 was tested. Which Dimer Recovery (%) did it give?
Answer: The Dimer Recovery (%) was 30%.

Question: For LHthr^42 (1-114), which Dimer Recovery (%) is on record?
Answer: The Dimer Recovery (%) was 84%.

Question: “human chorionic gonadotropin beta subunit” was tested. Which Dimer Recovery (%) did it give?
Answer: Its Dimer Recovery (%) is greater than 95%.

Question: human luteinizing hormone beta subunit was tested. Which Dimer Recovery (%) did it give?
Answer: Its Dimer Recovery (%) is 42%.

molecular target: human glycoprotein hormone alpha subunit (human) (UniProt P01215); assay: co-expression with alpha subunit in CHO cells, pulse-chase, immunoprecipitation; monoglycosylated form recovered in the medium

Question: LHthr^15 (1-114) was tested. Which Dimer Recovery (%) did it give?
Answer: The Dimer Recovery (%) was 40%.
